Marks after values point to notes of the source that are not given here.
How the values were obtained:
[1] = Body weight and mortality of tumor-bearing nude mice during drug administration; assay type: in vivo, BALB/c-nu nude mice; settings: mean ± SD
From the text: (§1) The tested animals were grouped into 7 groups with 7 nude mice in each group. The seven groups are the negative control group treated with human IgG antibody (purchased from Beijing Biosynthesis Biotechnology Co. Ltd.), the positive control group treated with herceptin (provided by Beijing Shenogen pharma group), the multi-clonal antibody test group treated with rabbit anti-ERα36 multi-clonal antibody (provided by Wang, Zhao-Yi group, Creighton University), and the monoclonal antibody test groups treated with human anti-ERα36 monoclonal ScFv1, ScFv3, ScFv4 and ScFv7 respectively.
(§2) The test groups were administered with the same dose of rabbit anti-ERα36 multi-clonal antibody, human anti-ERα36 monoclonal ScFv1, ScFv3, ScFv4 and ScFv7 respectively (5 mg/kg, 100 μg/dose). The positive control group was administered with 5 mg/kg herceptin (100 μg/dose,), and the negative control group was administered with 5 mg/kg IgG antibody (100 μg/dose).
Human breast tumor BCAP-37 (estrogen receptor positive, provided by department of pharmacology, Institute of Materia Medica, Chinese Academy of Medical Sciences) was implanted subcutaneously into the armpit of the right forelimb of each tested nude mouse. Diethylstilbestrol was administered by gavage with the dose of 7 μg/day for 9 consecutive days after the implantation. On day 10, the mice were grouped into 7 groups and administered with the corresponding drug via intravenous injection, at a dosing interval of 3-4 days, for 6 consecutive doses. Every 3-4 days, the tumor-bearing mice were weighed and their tumor sizes were measured. Parameters were calculated using the following equations: […]

[2] = biological target: T1, ERα36 (Homo sapiens, UniProt P03372); assay: ELISA of re-natured ScFv binding to ERα36
T1 construct: made in house; host or cells: chemical synthesis (no expression host)
T1 sequence (P03372 284-310 isoform P03372-4 limits assumed): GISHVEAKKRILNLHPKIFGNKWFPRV
Method: Streptavidin-coated 96-well plates were washed twice with PBS. Biotinylated ERα36 (final concentration of 20 μg/ml) was added into each testing well. The plates were incubated for 2 h at room temperature and washed three times with PBST. Re-natured ScFv samples (100 μl, S14A1r1, S24A2r2, S33A2r1, S41A3r3, S53A1r1, S66A1r1 and S72A2r1) were added into the testing wells respectively. Each ScFv was diluted five times in five gradients, and two parallel wells were loaded with each ScFv at each gradient. The plates were incubated at 37° C. for 1 h. The plates were washed three times with PBST, followed by addition of 100 μl anti-His-6 mouse monoclonal antibody (1:2000 dilution) per well and 1 h incubation at 37° C. The plates were washed three times with PBST, followed by addition of 100 μl goat anti-mouse-HRP (1:2500 dilution) per well and 1 h incubation at 37° C. The plates were washed six times with PBST, followed by addition of 100 μl OPD to develop under the protection from light. The reactions were terminated by adding 50 μl 2M H2SO4 to each well, and data were collected by microplate reader at 490 nm.
One positive control and three negative controls were performed in parallel. The positive control used rabbit anti-ER multi-clonal antibody serum in replacement of the ScFv re-natured sample and goat-anti-rabbit-HRP in replacement of goat-anti-mouse HRP.

[3] = test system: implanted tumors; assay: Comparison of anti-tumor activity of ScFv-7 with tamoxifen on tumor-bearing nude mice; assay type: in vivo, BALB/c-nu female nude mice; settings: after 18 days of drug administration
Method: BALB/c-nu female nude mice were divided into 3 groups, with 7 mice in each group.
Human anti-ERα36 ScFv-7 was administered at the dose of 0.1 mg/20 g body weight/day. The positive control tamoxifen was administered at the dose of 0.33 mg/20 g body weight/day. The negative control group was administered with human IgG.
The tumor-bearing nude mice were weighed, and the volumes of the implanted tumors were measured every 3-4 days. The relative tumor volumes and tumor growth inhibition rates were calculated using Equation 2 and Equation 4 respectively. Animals received drug administration for 18 days and were terminated 24 h later. The tumors were excised from the animals and weighed. The average tumor weights and tumor growth inhibitions were calculated using Equation 4.

[4] = test system: Human breast tumor BCAP-37; assay: Tumor growth inhibition in BCAP-37 tumor-bearing nude mice; assay type: in vivo, BALB/c-nu nude mice
From the text: 49 female BALB/c-nu nude mice (provided by department of laboratory animal science, Peking University Health Science Center) were used in the studies.
as §1, §2
Human breast tumor BCAP-37 (estrogen receptor positive, provided by department of pharmacology, Institute of Materia Medica, Chinese Academy of Medical Sciences) was implanted subcutaneously into the armpit of the right forelimb of each tested nude mouse. Diethylstilbestrol was administered by gavage with the dose of 7 μg/day for 9 consecutive days after the implantation. On day 10, the mice were grouped into 7 groups and administered with the corresponding drug via intravenous injection, at a dosing interval of 3-4 days, for 6 consecutive doses. Every 3-4 days, the tumor-bearing mice were weighed and their tumor sizes were measured. Parameters were calculated using the following equations:
Volume of Tumor in animals of each group (VT): Vt=½×a×b^2, (Equation 1),
wherein a and b represent the length and width of the tumor, respectively;
wherein V0 is the volume of tumor before drug administration at the time of grouping, Vt is the volume of tumor at each measurement; the calculation method of V0 is the same as that of Vt;
wherein TRTV is the arithmetic mean of RTV of the test groups, and CRTV is the arithmetic mean of RTV of the negative control group.
The tumor bearing mice in each group were terminated after 21 days of observations and drug administrations. The tumors were then excised from the animals, photographed and weighed on 1/10000 analytical balance. The average tumor weights and tumor growth inhibition rates were calculated:
All experimental data were shown in mean±standard deviation. Groups were compared using statistical t test.

[5] = 5 mg/kg i.v. every 3-4 days, 6 doses
[6] = ScFv concentration 200.00 μg/ml
[7] = BCAP-37 nude mice, 5 mg/kg i.v. every 3-4 days, 6 doses, mean ± SD
[8] = BCAP-37 nude mice, 5 mg/kg i.v. every 3-4 days, Vt relative to V0, mean ± SD

B1: ScFv7: fully human anti-ERα36 single chain antibody, SEQ ID NO: 15 (protein)
scFv: QSVLTQPPSVSAAPGQKVTISCSGSSSNIGNNYVSWYQQLPGTAPKLLIYDNNKRPSGIPDRFSGSKSGTSATLGITGLQTGDEADYYCGTWDSSLSAGVFGGGTKLTVLGSGGSTITSYNVYYTKLSSSGTEVQLVQSGGGLVQPGRSLRLSCAASGFTFDDYAMHWVRQAPGKGLEWVSGISWNSGSIGYADSVKGRFTISRDNAKNSLYLQMNSLRAEDTALYYCAKEGDSSGWSPDYWGQGTLVTVSSAS
modifications: scFv7
With B1 the “Body weights of tumor-bearing nude mice, Day 4 after drug administration” value [1, 5] was 20.02 ± 0.51, the “Body weights of tumor-bearing nude mice, Day 7 after drug administration” value [1, 5] was 20.65 ± 0.24 and the “Body weights of tumor-bearing nude mice, Day 11 after drug administration” value [1, 5] was 21.34 ± 0.51. The “Body weights of tumor-bearing nude mice, Day 14 after drug administration” value [1, 5] was 22.01 ± 0.52, the “Body weights of tumor-bearing nude mice, Day 18 after drug administration” value [1, 5] was 23.15 ± 0.58 and the “Body weights of tumor-bearing nude mice, Day 21 after drug administration” value [1, 5] was 23.52 ± 0.47. For the same molecule, the “body weight when grouped” value ([1]; baseline at the time of grouping) was 19.67 ± 0.67, the “Body weights of tumor-bearing nude mice, Before drug administration” value ([1]; baseline, 5 mg/kg i.v. every 3-4 days, 6 doses) was 19.67 ± 0.67 and the “OD490 Well1” value ([2]; ScFv concentration 0.32 μg/ml) was 0.122. The “OD490 Well2” value ([2]; ScFv concentration 0.32 μg/ml) was 0.111, the “OD490 Well1” value ([2]; ScFv concentration 1.60 μg/ml) was 0.146 and the “OD490 Well2” value ([2]; ScFv concentration 1.60 μg/ml) was 0.155. The “OD490 Well1” value ([2]; ScFv concentration 8.00 μg/ml) was 0.171, the “OD490 Well2” value ([2]; ScFv concentration 8.00 μg/ml) was 0.155 and the “OD490 Well1” value ([2]; ScFv concentration 40.00 μg/ml) was 0.294. For the same molecule, the “OD490 Well2” value ([2]; ScFv concentration 40.00 μg/ml) was 0.311, the “OD490 Well1” value [2, 6] was 0.690 and the “OD490 Well2” value [2, 6] was 0.740. The “tumor sizes at pathological examination (in words)” value [3] was “significantly smaller than those of the negative group”, the “tumor volume (VT), relative tumor volume (RVT) and relative tumor growth rate (T/C %) versus negative control group” value [3] was “significantly lower” and the tumor inhibition rates ([3]; ScFv-7 0.1 mg/20 g body weight/day, tamoxifen 0.33 mg/20 g body weight/day) was “around 60%”. For the same molecule, the “average tumor weights compared with negative group” value ([3]; p-values below 0.01) was “significant difference”, the “Tumor volumes, Day 4 after drug administration” value [4, 7] was 186.11 ± 71.13^a mm^3 and the “Tumor volumes, Day 7 after drug administration” value [4, 7] was 308.85 ± 117.52^b mm^3. For the same molecule, the “Tumor volumes, Day 11 after drug administration” value [4, 7] was 1521.45 ± 366.24^b mm^3, the “Tumor volumes, Day 14 after drug administration” value [4, 7] was 2136.49 ± 479.95^b mm^3 and the “Tumor volumes, Day 18 after drug administration” value [4, 7] was 2944.61 ± 526.75^b mm^3. For the same molecule, the “Tumor volumes, Day 21 after drug administration” value [4, 7] was 3358.43 ± 445.13^b mm^3, the “relative tumor volume (RTV), Day 4” value [4, 8] was 3.81 ± 1.54^b and the “relative tumor volume (RTV), Day 7” value [4, 8] was 6.45 ± 2.86^b. For the same molecule, the “relative tumor volume (RTV), Day 11” value [4, 8] was 31.64 ± 10.24^b, the “relative tumor volume (RTV), Day 14” value [4, 8] was 44.48 ± 13.69^b and the “relative tumor volume (RTV), Day 18” value [4, 8] was 61.54 ± 18.25^b. The “relative tumor volume (RTV), Day 21” value [4, 8] was 70.27 ± 19.61^b, the “inhibition of tumor growth in tumor-bearing mice (in words)” value ([4]; BCAP-37 nude mice, 5 mg/kg i.v., 6 doses) was “strongest inhibitory activities” and the “Tumor volumes, Before drug administration” value ([4]; baseline, BCAP-37 nude mice, 5 mg/kg i.v. every 3-4 days, 6 doses, mean ± SD) was 50.62 ± 13.32 mm^3. The “tumor sizes at pathological examination (in words)” value ([4]; excised tumors after 21 days) was “the smallest among the mono-clonal antibody groups”, the “Tumor weight” value ([4]; excised tumors after 21 days, BCAP-37 nude mice, 5 mg/kg i.v., 6 doses, mean ± SD) was 2.860 ± 0.696 g and the “Tumor growth inhibition rate (%)” value ([4]; from average tumor weights after 21 days vs negative control, 5 mg/kg i.v., 6 doses) was 57.97%.

From patent US20110311517A1, “Antibodies and methods for treating estrogen receptor-associated diseases” (SHENOGEN PHARMA GROUP, LTD., priority 2009, published 2011)
